Each block holds one binder with its values, some of them ahead of it.
B1: human STN1 (subunit of the purified recombinant CST complex) (natural protein)
chain: MQPGSSRCEEETPSLLWGLDPVFLAFAKLYIRDILDMKESRQVPGVFLYNGHPIKQVDVLGTVIGVRERDAFYSYGVDDSTGVINCICWKKLNTESVSAAPSAARELSLTSQLKKLQETIEQKTKIEIGDTIRVRGSIRTYREEREIHATTYYKVDDPVWNIQIARMLELPTIYRKVYDQPFHSSALEKEEALSNPGALDLPSLTSLLSEKAKEFLMENRVQSFYQQELEMVESLLSLANQPVIHSASSDQVNFKKDTTSKAIHSIFKNAIQLLQEKGLVFQKDDGFDNLYYVTREDKDLHRKIHRIIQQDCQKPNHMEKGCHFLHILACARLSIRPGLSEAVLQQVLELLEDQSDIVSTMEHYYTAF
B3: human CTC1 (subunit of the purified recombinant CST complex) (natural protein)
chain: MAAGRAQVPSSEQAWLEDAQVFIQKTLCPAVKEPNVQLTPLVIDCVKTVWLSQGRNQGSTLPLSYSFVSVQDLKTHQRLPCCSHLSWSSSAYQAWAQEAGPNGNPLPREQLLLLGTLTDLSADLEQECRNGSLYVRDNTGVLSCELIDLDLSWLGHLFLFPRWSYLPPARWNSSGEGHLELWDAPVPVFPLTISPGPVTPIPVLYPESASCLLRLRNKLRGVQRNLAGSLVRLSALVKSKQKAYFILSLGRSHPAVTHVSIIVQVPAQLVWHRALRPGTAYVLTELRVSKIRGQRQHVWMTSQSSRLLLLKPECVQELELELEGPLLEADPKPLPMPSNSEDKKDPESLVRYSRLLSYSGAVTGVLNEPAGLYELDGQLGLCLAYQQFRGLRRVMRPGVCLQLQDVHLLQSVGGGTRRPVLAPCLRGAVLLQSFSRQKPGAHSSRQAYGASLYEQLVWERQLGLPLYLWATKALEELACKLCPHVLRHHQFLQHSSPGSPSLGLQLLAPTLDLLAPPGSPVRNAHNEILEEPHHCPLQKYTRLQTPSSFPTLATLKEEGQRKAWASFDPKALLPLPEASYLPSCQLNRRLAWSWLCLLPSAFCPAQVLLGVLVASSHKGCLQLRDQSGSLPCLLLAKHSQPLSDPRLIGCLVRAERFQLIVERDVRSSFPSWKELSMPGFIQKQQARVYVQFFLADALILPVPRPCLHSATPSTPQTDPTGPEGPHLGQSRLFLLCHKEALMKRNFCVPPGASPEVPKPALSFYVLGSWLGGTQRKEGTGWGLPEPQGNDDNDQKVHLIFFGSSVRWFEFLHPGQVYRLIAPGPATPMLFEKDGSSCISRRPLELAGCASCLTVQDNWTLELESSQDIQDVLDANKSLPESSLTDLLSDNFTDSLVSFSAEILSRTLCEPLVASLWMKLGNTGAMRRCVKLTVALETAECEFPPHLDVYIEDPHLPPSLGLLPGARVHFSQLEKRVSRSHNVYCCFRSSTYVQVLSFPPETTISIPLPHIYLAELLQGGQSPFQATASCHIVSVFSLQLFWVCAYCTSICRQGKCTRLGSTCPTQTAISQAIIRLLVEDGTAEAVVTCRNHHVAAALGLCPREWASLLDFVQVPGRVVLQFAGPGAQLESSARVDEPMTMFLWTLCTSPSVLRPIVLSFELERKPSKIVPLEPPRLQRFQCGELPFLTHVNPRLRLSCLSIRESEYSSSLGILASSC

Experiments:
Test in all cases: cryo-EM structure
[1] = target: B3
[2] = target: B1
cryo-EM structure = target: the molecule itself

Binder: B1
stoichiometry N [1]: 1

stoichiometry N [2]: 1
binding result [1]: binds
B2: human TEN1 (subunit of the purified recombinant CST complex) (natural protein)
chain: MMLPKPGTYYLPWEVSAGQVPDGSTLRTFGRLCLYDMIQSRVTLMAQHGSDQHQVLVCTKLVEPFHAQVGSLYIVLGELQHQQDRGSVVKARVLTCVEGMNLPLLEQAIREQRLYKQERGGSQ

Binder: B3
binding result (cryo-EM structure): binds
